For the assay, the target named is SARS-CoV-2 Delta Spike antigen (SARS-CoV-2 Delta). Kind of assay: ELISA, Spike antigen coated on plate. For orientation: In an ELISA, binding on a coated surface is turned into a signal by an enzyme label.

Experimental findings from patent US20260234222A1 are described below.

By EC50 is commonly meant the concentration that produces a half-maximal response. Anti-S1 antibody DZIF-10c gave a concentration giving a half-maximal response (EC50) of 6.9 nM. This counts as single-digit nanomolar.
As to Anti-S1 antibody ImdevimAb, the EC50 was 0.01 nM.
